Measurements from publication PMC4140284, “Human UTY(KDM6C) Is a Male-specific N^ϵ-Methyl Lysyl Demethylase” (The Journal of Biological Chemistry, 2014).
“Also recorded” adds a separate entry of the source.

B1: FL WT UTY(KDM6C): full-length wild type UTY(KDM6C) exogenously expressed in cells (protein, UniProt O14607 1-1347, looked up)
chain: MKSCAVSLTTAAVAFGDEAKKMAEGKASRESEEESVSLTVEEREALGGMDSRLFGFVRLHEDGARTKTLLGKAVRCYESLILKAEGKVESDFFCQLGHFNLLLEDYSKALSAYQRYYSLQADYWKNAAFLYGLGLVYFYYNAFHWAIKAFQDVLYVDPSFCRAKEIHLRLGLMFKVNTDYKSSLKHFQLALIDCNPCTLSNAEIQFHIAHLYETQRKYHSAKEAYEQLLQTENLPAQVKATVLQQLGWMHHNMDLVGDKATKESYAIQYLQKSLEADPNSGQSWYFLGRCYSSIGKVQDAFISYRQSIDKSEASADTWCSIGVLYQQQNQPMDALQAYICAVQLDHGHAAAWMDLGTLYESCNQPQDAIKCYLNAARSKRCSNTSTLAARIKFLQNGSDNWNGGQSLSHHPVQQVYSLCLTPQKLQHLEQLRANRDNLNPAQKHQLEQLESQFVLMQQMRHKEVAQVRTTGIHNGAITDSSLPTNSVSNRQPHGALTRVSSVSQPGVRPACVEKLLSSGAFSAGCIPCGTSKILGSTDTILLGSNCIAGSESNGNVPYLQQNTHTLPHNHTDLNSSTEEPWRKQLSNSAQGLHKSQSSCLSGPNEEQPLFSTGSAQYHQATSTGIKKANEHLTLPSNSVPQGDADSHLSCHTATSGGQQGIMFTKESKPSKNRSLVPETSRHTGDTSNGCADVKGLSNHVHQLIADAVSSPNHGDSPNLLIADNPQLSALLIGKANGNVGTGTCDKVNNIHPAVHTKTDHSVASSPSSAISTATPSPKSTEQRSINSVTSLNSPHSGLHTVNGEGLGKSQSSTKVDLPLASHRSTSQILPSMSVSICPSSTEVLKACRNPGKNGLSNSCILLDKCPPPRPPTSPYPPLPKDKLNPPTPSIYLENKRDAFFPPLHQFCTNPKNPVTVIRGLAGALKLDLGLFSTKTLVEANNEHMVEVRTQLLQPADENWDPTGTKKIWRCESNRSHTTIAKYAQYQASSFQESLREENEKRTQHKDHSDNESTSSENSGRRRKGPFKTIKFGTNIDLSDNKKWKLQLHELTKLPAFARVVSAGNLLTHVGHTILGMNTVQLYMKVPGSRTPGHQENNNFCSVNINIGPGDCEWFVVPEDYWGVLNDFCEKNNLNFLMSSWWPNLEDLYEANVPVYRFIQRPGDLVWINAGTVHWVQAVGWCNNIAWNVGPLTACQYKLAVERYEWNKLKSVKSPVPMVHLSWNMARNIKVSDPKLFEMIKYCLLKILKQYQTLREALVAAGKEVIWHGRTNDEPAHYCSICEVEVFNLLFVTNESNTQKTYIVHCHDCARKTSKSLENFVVLEQYKMEDLIQVYDQFTLALSLSSSS
modifications: full-length
notes: full-length wild type UTY(KDM6C) exogenously expressed in cells
B2: Nkx2.5: transcription factor (protein, UniProt P52952 1-324, looked up)
Homeobox protein Nkx-2.5: MFPSPALTPTPFSVKDILNLEQQQRSLAAAGELSARLEATLAPSSCMLAAFKPEAYAGPEAAAPGLPELRAELGRAPSPAKCASAFPAAPAFYPRAYSDPDPAKDPRAEKKELCALQKAVELEKTEADNAERPRARRRRKPRVLFSQAQVYELERRFKQQRYLSAPERDQLASVLKLTSTQVKIWFQNRRYKCKRQRQDQTLELVGLPPPPPPPARRIAVPVLVRDGKPCLGDSAPYAPAYGVGLNPYGYNAYPAYPGYGGAACSPGYSCTAAYPAGPSPAQPATAAANNNFVNFGVGDLNAVQSPGIPQSNSGVSTLHGIRAW

Columns and labels:
[1] = system: H3K27Me3 levels in HeLa cells; experiment: Immunofluorescence of global H3K27Me3 levels on overexpression in HeLa cells; assay type: cell-based; conditions: exogenous overexpression in HeLa cells
Experimental: For cell-based experiments, HEK 293T and HeLa cells were cultured at 37 °C and 5% CO2 in DMEM (Lonza) supplemented with 10% fetal bovine serum (FBS) (Invitrogen) and 1% Glutamax (Invitrogen). For microscopy, HeLa cells were seeded into 96-well clear bottom optical grade plates (BD Biosciences) at 8000 cells/well and allowed to settle overnight. Transfections were carried out the next day. For each well, 0.1 μg of plasmid and 0.25 μl of Lipofectamine 2000 (Invitrogen) were each incubated in 25 μl of Opti-MEM (Invitrogen) for 5 min at room temperature. The two solutions were then mixed gently but thoroughly and incubated for 20 min at room temperature. The mixture was added to the cells in 50 μl of fresh medium. Four hours later, the medium was changed, and the cells were incubated for a further 24 h before fixation. Cells were fixed in 4% (v/v) aqueous formaldehyde for 20 min, permeabilized in 0.5% Triton X-100 in phosphate-buffered saline (PBS) for 8 min, and blocked in 3% (w/v) FBS in PBS for 1 h with a PBS wash between each step. The primary antibodies were then added to the cells in blocking solution. […] Luciferase activity was measured using the Promega Dual-Luciferase Reporter Assay System on a Promega GloMax 20/20 luminometer. Readings were normalized to a Renilla luciferase control that was co-transfected with all samples. […]

[2] = system: ANF promoter in HEK 293T cells; experiment: ANF promoter dual luciferase assay in HEK 293T cells; assay type: cell-based; conditions: for ANF promoter luciferase expression in the presence of Nkx2.5: Nkx2.5 present
Experimental: For cell-based experiments, HEK 293T and HeLa cells were cultured at 37 °C and 5% CO2 in DMEM (Lonza) supplemented with 10% fetal bovine serum (FBS) (Invitrogen) and 1% Glutamax (Invitrogen). For microscopy, HeLa cells were seeded into 96-well clear bottom optical grade plates (BD Biosciences) at 8000 cells/well and allowed to settle overnight. Transfections were carried out the next day. For each well, 0.1 μg of plasmid and 0.25 μl of Lipofectamine 2000 (Invitrogen) were each incubated in 25 μl of Opti-MEM (Invitrogen) for 5 min at room temperature. The two solutions were then mixed gently but thoroughly and incubated for 20 min at room temperature. The mixture was added to the cells in 50 μl of fresh medium. Four hours later, the medium was changed, and the cells were incubated for a further 24 h before fixation. Cells were fixed in 4% (v/v) aqueous formaldehyde for 20 min, permeabilized in 0.5% Triton X-100 in phosphate-buffered saline (PBS) for 8 min, and blocked in 3% (w/v) FBS in PBS for 1 h with a PBS wash between each step. The primary antibodies were then added to the cells in blocking solution. After 1 h at room temperature, cells were washed three times in PBS, incubated with secondary antibodies for 1 h, rinsed three times in PBS again, and counterstained with DAPI before imaging. Luciferase activity assays were carried out as described previously ([13], [22], [40]). The atrial natriuretic factor (ANF) promoter-luciferase reporter was a kind gift from Benoit Bruneau ([41]). As for immunofluorescence assays, this construct was co-transfected into HEK 293T cells in the presence of full-length (FL) WT UTY(KDM6C) or H1095 UTY(KDM6C). Luciferase activity was measured using the Promega Dual-Luciferase Reporter Assay System on a Promega GloMax 20/20 luminometer. Readings were normalized to a Renilla luciferase control that was co-transfected with all samples.

Molecule	change in global H3K27Me3 level [1]	ANF promoter luciferase expression in the presence of Nkx2.5 ([2]; HEK 293T cells)	ANF promoter luciferase expression (in words) ([2]; HEK 293T cells, without Nkx2.5, *, p < 0.05 unpaired Student's t test)	increase in ANF promoter-coupled luciferase expression ([2]; overexpression in HEK 293T cells, relative to empty vector control, average of three biological replicates of triplicate transfections)
B1	no detectable decrease; also recorded: no change in H3K27Me3 levels	does not further enhance expression	enhanced expression	5 -fold
B2		enhanced expression from the ANF promoter		
